Results on 1 substance are retold here after paper PMC4847857.

The target in experiment [1] is ATP-binding cassette A1 (human (endogenous in THP-1)) (UniProt O95477).
The target of experiment [2] is ATP-binding cassette G1 (human (endogenous in THP-1)) (UniProt P45844).

UniProt O95477, sequence (O95477 whole entry): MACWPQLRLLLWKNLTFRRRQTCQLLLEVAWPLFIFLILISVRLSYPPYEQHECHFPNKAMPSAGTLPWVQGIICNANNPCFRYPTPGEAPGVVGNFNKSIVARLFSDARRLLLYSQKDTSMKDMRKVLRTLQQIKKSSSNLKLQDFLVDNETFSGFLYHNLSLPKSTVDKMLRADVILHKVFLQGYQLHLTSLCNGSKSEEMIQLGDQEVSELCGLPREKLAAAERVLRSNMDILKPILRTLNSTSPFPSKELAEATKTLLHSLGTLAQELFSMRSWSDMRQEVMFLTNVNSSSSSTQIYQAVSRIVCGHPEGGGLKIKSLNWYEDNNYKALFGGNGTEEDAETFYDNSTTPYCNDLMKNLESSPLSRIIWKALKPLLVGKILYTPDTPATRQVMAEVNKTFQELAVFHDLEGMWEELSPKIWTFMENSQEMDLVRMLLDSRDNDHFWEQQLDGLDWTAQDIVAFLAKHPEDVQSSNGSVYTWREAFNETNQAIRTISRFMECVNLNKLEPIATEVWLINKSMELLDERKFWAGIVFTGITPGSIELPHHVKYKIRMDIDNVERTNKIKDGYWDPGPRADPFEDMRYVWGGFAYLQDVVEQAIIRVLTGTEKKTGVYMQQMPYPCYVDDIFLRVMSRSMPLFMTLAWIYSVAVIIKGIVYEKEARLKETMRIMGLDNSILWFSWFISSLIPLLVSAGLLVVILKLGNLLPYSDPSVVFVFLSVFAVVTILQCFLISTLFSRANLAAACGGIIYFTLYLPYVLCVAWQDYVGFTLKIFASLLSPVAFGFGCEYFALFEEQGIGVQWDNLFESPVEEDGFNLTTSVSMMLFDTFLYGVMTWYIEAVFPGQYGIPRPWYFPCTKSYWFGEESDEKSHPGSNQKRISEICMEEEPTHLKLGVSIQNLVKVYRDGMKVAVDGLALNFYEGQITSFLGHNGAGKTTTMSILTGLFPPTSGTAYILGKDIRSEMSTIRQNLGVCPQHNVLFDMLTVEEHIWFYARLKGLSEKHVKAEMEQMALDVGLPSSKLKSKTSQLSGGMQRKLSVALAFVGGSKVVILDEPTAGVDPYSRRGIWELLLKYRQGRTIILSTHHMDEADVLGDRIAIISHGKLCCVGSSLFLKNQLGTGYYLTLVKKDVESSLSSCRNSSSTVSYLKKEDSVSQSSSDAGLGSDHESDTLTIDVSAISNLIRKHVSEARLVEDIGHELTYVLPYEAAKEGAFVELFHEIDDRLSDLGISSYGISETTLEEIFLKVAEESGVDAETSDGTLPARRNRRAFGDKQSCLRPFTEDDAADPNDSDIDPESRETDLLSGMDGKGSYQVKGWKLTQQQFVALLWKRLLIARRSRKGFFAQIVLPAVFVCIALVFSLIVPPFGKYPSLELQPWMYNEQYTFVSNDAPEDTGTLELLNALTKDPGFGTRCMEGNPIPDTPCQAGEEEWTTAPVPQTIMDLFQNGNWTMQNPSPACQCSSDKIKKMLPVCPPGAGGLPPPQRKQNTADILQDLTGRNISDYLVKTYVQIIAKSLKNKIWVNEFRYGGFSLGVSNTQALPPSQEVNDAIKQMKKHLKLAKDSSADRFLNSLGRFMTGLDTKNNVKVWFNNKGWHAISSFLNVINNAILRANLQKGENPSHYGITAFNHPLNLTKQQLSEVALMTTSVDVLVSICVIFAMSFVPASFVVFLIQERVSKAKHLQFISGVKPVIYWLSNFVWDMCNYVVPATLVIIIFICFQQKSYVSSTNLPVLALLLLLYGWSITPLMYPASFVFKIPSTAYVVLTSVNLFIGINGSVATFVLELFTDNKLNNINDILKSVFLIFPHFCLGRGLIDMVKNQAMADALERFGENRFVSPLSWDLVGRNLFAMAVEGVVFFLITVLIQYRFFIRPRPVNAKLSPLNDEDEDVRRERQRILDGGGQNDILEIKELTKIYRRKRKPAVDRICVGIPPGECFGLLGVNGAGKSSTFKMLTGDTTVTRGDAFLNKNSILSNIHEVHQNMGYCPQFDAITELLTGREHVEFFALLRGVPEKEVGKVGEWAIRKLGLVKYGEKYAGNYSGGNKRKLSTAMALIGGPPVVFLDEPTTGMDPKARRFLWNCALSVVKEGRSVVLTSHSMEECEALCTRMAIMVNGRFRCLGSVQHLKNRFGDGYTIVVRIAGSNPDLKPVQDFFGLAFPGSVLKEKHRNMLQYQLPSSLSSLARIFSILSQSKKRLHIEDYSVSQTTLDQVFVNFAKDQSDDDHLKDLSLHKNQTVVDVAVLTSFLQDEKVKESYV

For the substance “human apoA-1 from human plasma (from UniProt P02647 19-267) (ligand)”, the cholesterol efflux from [H^3]-cholesterol-loaded THP-1 macrophages to apoA-I (10 μg/ml) after heat-killed L. acidophilus K301; no effect in the absence of apoA-I in experiment [1] and in experiment [2] was 2.3 fold throughout.
